Measurements reported in patent US10287317B2, “Proprotein convertase subtilisin kexin type 9 (PCSK9) allosteric binding ligands to modulate serum low density lipoprotein (LDL) levels” (SRX Cardio, LLC, priority 2013, dated 2019).
*1 amine or outer side, *2 acyl side, *3 side chain or, on linkers, in order; H or OH if unused. Where a SMILES comes first, the peptide text is derived from it. Where no end group is shown, it is not given here. [ ]: non-standard residue; d: D form. The star is where a group is joined. Asp(NHCH2Ph) = Asp side-chain benzylamide, O=C(C[C@H](N[*:1])C(=O)[*:2])NCc1ccccc1; Cys(CH2-Ph) = S-benzyl-Cys, O=C([C@H](CSCc1ccccc1)N[*:1])[*:2]; Phe(3-CH2NH2) = O=C([C@H](Cc1cccc(CN[*:3])c1)N[*:1])[*:2]; Bip = N[C@@H](Cc1ccc(-c2ccccc2)cc1)C(=O)O; d(pS) = N[C@H](COP(=O)(O)O)C(=O)O; hCha = N[C@@H](CCC1CCCCC1)C(=O)O; hPhe = N[C@@H](CCc1ccccc1)C(=O)O; pS = N[C@@H](COP(=O)(O)O)C(=O)O; Cit = NC(=O)NCCC[C@H](N)C(=O)O; Bn = c1ccc(C*)cc1; βAla = NCCC(=O)O

B1: SRX310: Val-Tyr-Val-Cit-Phe-Trp-NH2 (peptide)
peptide: VYV[Cit]FW-NH2
modifications: N-terminus assumed
SMILES: CC(C)[C@H](N)C(=O)N[C@@H](Cc1ccc(O)cc1)C(=O)N[C@H](C(=O)N[C@@H](CCCNC(N)=O)C(=O)N[C@@H](Cc1ccccc1)C(=O)N[C@@H](Cc1c[nH]c2ccccc12)C(N)=O)C(C)C

target: PCSK9-WT protein (human proprotein convertase subtilisin/kexin type 9) (human, UniProt Q8NBP7 31-692, limits assumed); test: cell-based or functional assay; conditions: not given
Sequence (Q8NBP7 31-692 limits assumed): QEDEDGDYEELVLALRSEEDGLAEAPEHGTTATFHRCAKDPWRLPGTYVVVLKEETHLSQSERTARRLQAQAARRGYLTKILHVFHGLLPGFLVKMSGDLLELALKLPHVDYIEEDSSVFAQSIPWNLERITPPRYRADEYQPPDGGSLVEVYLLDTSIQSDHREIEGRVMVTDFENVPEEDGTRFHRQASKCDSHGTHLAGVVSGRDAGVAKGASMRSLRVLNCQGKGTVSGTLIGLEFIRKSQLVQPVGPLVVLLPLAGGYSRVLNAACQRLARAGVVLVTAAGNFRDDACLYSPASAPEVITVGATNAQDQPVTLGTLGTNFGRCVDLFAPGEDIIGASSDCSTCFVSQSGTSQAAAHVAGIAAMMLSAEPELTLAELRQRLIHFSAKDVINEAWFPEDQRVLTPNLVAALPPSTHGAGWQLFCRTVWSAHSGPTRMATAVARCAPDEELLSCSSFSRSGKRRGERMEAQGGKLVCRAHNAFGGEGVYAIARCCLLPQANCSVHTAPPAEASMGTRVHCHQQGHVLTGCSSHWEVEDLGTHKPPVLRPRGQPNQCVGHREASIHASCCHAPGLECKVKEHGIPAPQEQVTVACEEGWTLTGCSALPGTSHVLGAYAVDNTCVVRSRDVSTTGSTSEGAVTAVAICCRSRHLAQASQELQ

| Molecule | Cell Activity of Exemplified Peptides (FACS of cell surface LDLR, HuH7/shPCSK9 cells) | cell surface LDLR levels, FACS in HuH7 cells, 10 nM recombinant PCSK9 |
| --- | --- | --- |
| Ac-Tyr-Trp-Gly [SRX72: Ac-Tyr-Trp-Gly] | > 30 % inhibition below control at 100 uM | – |
| TL[hCha]TWSS[pS] [SRX62: Thr-Leu-Gly(CH2CH2cyclohexyl)-Thr-Trp-Ser-Ser-Ser(p)] | > 30 % inhibition above control at 100 uM | – |
| Ac-Trp-Ala-[pS] [SRX69: Ac-Trp-Ala-Ser(p)] | > 30 % inhibition below control at 100 uM | – |
| [Bip]-Ala-[pS]-morpholine [SRX73: Phe(4-Ph)-Ala-Ser(p)-morpholine] | > 30 % inhibition below control at 100 uM | – |
| VLELYW [SRX65: Val-Leu-Glu-Leu-Tyr-Trp] | > 30 % inhibition above control at 100 uM | – |
| TL[Cys(CH2-Ph)]TWSS[pS] [SRX60: Thr-Leu-Cys(CH2-Ph)-Thr-Trp-Ser-Ser-Ser(p)] | > 30 % inhibition above control at 100 uM | – |
| VYV[Cit]FW-NHEt [SRX314: Val-Tyr-Val-Cit-Phe-Trp-NHEt] | – | > 60 % reversal |
| VYVRFW (not fully specified; printed as Val-Tyr-Val-Arg-Phe-Trp) [SRX55: Val-Tyr-Val-Arg-Phe-Trp] | > 30 % inhibition above control at 100 uM | – |
| LDLFFS [SRX66: Leu-Asp-Leu-Phe-Phe-Ser] | > 30 % inhibition above control at 100 uM | – |
| B1 | – | 60 % reversal |
| VYVRF-{NH(cyclopentyl)} [SRX321: Val-Tyr-Val-Arg-Phe-NH(cyclopentyl)] | – | > 60 % reversal |
| [βAla][Phe(3-CH2NH2)]V[d(pS)]FW [SRX56: β-Ala-Phe(3-CH2NH2)-Val-D-Ser(p)-Phe-Trp] | > 30 % inhibition above control at 100 uM | – |
| TL[Asp(NHCH2Ph)]TWSS[pS] [SRX61: Thr-Leu-Asp(NHCH2Ph)-Thr-Trp-Ser-Ser-Ser(p)] | > 30 % inhibition above control at 100 uM | – |

target: PCSK9-D374Y protein (Homo sapiens, UniProt Q8NBP7, D374Y); test: Cellular diI-LDL uptake in HuH7 cells with PCSK9-D374Y; format: cell-based; conditions: HuH7, 0.5 μg/ml PCSK9-D374Y, 100 uM peptide (FIG. 3)
Sequence (Q8NBP7 153-692 D374Y): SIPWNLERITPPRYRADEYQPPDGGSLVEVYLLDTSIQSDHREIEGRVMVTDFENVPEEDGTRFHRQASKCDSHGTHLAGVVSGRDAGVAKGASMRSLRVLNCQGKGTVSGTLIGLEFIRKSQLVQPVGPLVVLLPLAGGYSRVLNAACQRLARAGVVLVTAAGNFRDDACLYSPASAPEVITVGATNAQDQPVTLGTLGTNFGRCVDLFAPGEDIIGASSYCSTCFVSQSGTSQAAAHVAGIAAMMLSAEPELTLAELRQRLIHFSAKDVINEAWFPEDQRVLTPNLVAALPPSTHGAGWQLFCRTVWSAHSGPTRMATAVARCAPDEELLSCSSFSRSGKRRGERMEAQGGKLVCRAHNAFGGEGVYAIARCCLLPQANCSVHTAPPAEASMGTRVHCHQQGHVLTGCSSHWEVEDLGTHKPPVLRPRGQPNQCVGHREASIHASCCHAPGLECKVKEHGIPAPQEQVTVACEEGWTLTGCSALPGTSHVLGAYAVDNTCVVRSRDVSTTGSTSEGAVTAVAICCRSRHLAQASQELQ
Experimental: (§1) HuH7 cells were incubated in a 96-well plate for a total of 20 h in the absence (Cnt) or presence of 0.5 μg/ml PCSK9-D374Y protein alone (DY) or mixed with 100 uM of various SRX peptides. After 16 h, dil-LDL (5 ug/ml) was added to the incubation mixtures. After 4 h, fluorescence was measured (Ex: 520 nm/Em: 575 nm; cutoff: 550 nm). Dil-LDL uptake is calculated as RFU corrected for the number of cells.
as §1, with “PCSK9 GOF-D374Y” for “PCSK9-D374Y”, “increasing concentrations” for “100 uM”
(§2) LDL internalization was measured by uptake of a fluorescently tagged LDL molecule (diI-LDL) in the absence of exogenous PCSK9 (Cnt), in the presence of exogenous PCSK9 (normal PCSK9=WT, D374Y mutant PCSK9=DY), or in the presence of PCSK9 and a tested peptide (indicated as SRX##, or SRX if a single peptide results is shown in a graph).
(§3) Cells, such as HepG2, HuH7, FL83B or a cell line transfected with a short-hairpin PCSK9 knockdown sequence such as HepG2/shPCSK9, HuH7/shPCSK9, FL83B/shPCSK9, were seeded at 2×10^4 cells/well in a 96-well plate and cultured at 37 degC in RPMI+10% FBS. After approximately 24 hours, the cell media was aspirated off and replaced with RPMI+3-5 mg/mL LPDS (Lipoprotein Deficient Serum, Millipore) media for further experimentation. Benjannet et al., “Effects of the prosegment and pH on the activity of PCSK9: evidence for additional processing events” J Biol Chem. 285(52): 40965-40978 (2010).
(§4) Peptide activity was assessed by culturing cells with: i) no SRX peptide/PCSK9 protein complex (control, Cnt); ii) PCSK9 protein; and iii) SRX peptide/PCSK9 complex. Various permutations of these experimental conditions were also used, including: i) the addition of wild type PCSK9 (WT); ii) a mutant PCSK9 (e.g., D374Y mutant PCSK9, DY); iii) various SRX peptides and/or PCSK9 at the same concentration and/or combinations; iv) various SRX peptides and/or PCSK9 at different concentrations and/or combinations; v) the use of different cells, as mentioned above, with or without a transfected short-hairpin sequence; vi) a pre-incubation of the PCSK9 and SRX peptide (e.g., 1, hour, 2 hours, 3 hours, 4 hours etc.); vii) various temperatures including, but not limited to, body temperature (e.g., 37° C.), supraphysiologic temperature (e.g., 39° C.); and viii) with/without agitation (e.g., shaker or gentle periodic vortexing).
(§5) Cells were cultured using one of the combinations of conditions described in the preceding paragraph for 16 hours. After 16 hours, a quantity of diI-LDL (Low density lipoprotein coupled with 1,1′-dioctadecyl-3,3,3′,3′-tetramethylindocarbocyanine perchlorate) needed to bring the media concentration to 5 ug/mL of diI-LDL was added to the culture well and cells continued to be cultured under these new conditions for 4 additional hours. At the end of the 4-hour incubation period (20 total hours of cell culture), the cellular uptake was halted with the addition of 4% formaldehyde in 10 uM Hoechst 33342 in a solvent such as deionized autoclaved water or PBS, and specimens were incubated at 20° C. for 20 minutes. Cell specimens were rinsed twice with PBS and then fluorescence measured with excitation at 360 nm and emission detected at 460 nm to measure DNA content. Cell specimens were then be incubated with a 0.1% SDS in a 0.1 N NaOH solution while being shaken for 10 minutes. Fluorescence of the diI-LDL in the specimens were quantified using excitation at 530 nm and resulting emission at 580 nm.
Fluorescence measurements of diI-LDLR were normalized to estimated cell numbers, determined from the Hoechst fluorescence. […]

| Molecule | LDL internalization (dil-LDL % uptake vs Cnt) |
| --- | --- |
| CC(=O)N[C@@H](Cc1ccc(O)cc1)C(=O)N[C@@H](Cc1c[nH]c2ccccc12)C(=O)NCC(=O)O [Compound 14, Ac-Tyr-Trp-Gly] (Ac-Tyr-Trp-Gly-OH) | negatively modulated (decreased) |
| Thr-Leu-Hph-Thr-Trp-Ser-Ser-Ser(p) (TL[hPhe]TWSS[pS]) [Compound 6] | positively modulated (increased) |

target: T1, PCSK9-WT protein (Homo sapiens, UniProt Q8NBP7); test: Cellular diI-LDL uptake in HuH7 cells with PCSK9-WT; format: cell-based; conditions: HuH7, 1.0 μg/ml PCSK9-WT, 100 uM peptide (FIG. 2)
T1 construct: V5
T1 sequence (Q8NBP7 153-692): as the sequence (Q8NBP7 153-692 D374Y) above, with Y222D counted along it
Experimental: as §1, with “1.0” for “0.5”, “PCSK9-WT” for “PCSK9-D374Y”, “(WT)” for “(DY)”
as §2, §3, §4, §5
Fluorescence measurements of diI-LDLR were normalized to estimated cell numbers, determined from the Hoechst fluorescence. Data was analyzed for the different experimental conditions and reported as percentage relative fluorescence units (RFU) of the Cnt specimen. Percent inhibition was calculated as the difference in RFU of a peptide exposed specimen to the RFU of PCSK9-no peptide, divided by the RFU difference in PCSK9-no peptide to RFU of Cnt specimen, also expressed as [(SRX:RFU)−(PCSK9-no peptide:RFU)]/[(PCSK9-no peptide:RFU)−(Cnt:RFU)]×100.

| Molecule | LDL internalization (dil-LDL % uptake vs Cnt) |
| --- | --- |
| VLELYW [Compound 8] | negatively modulated (decreased) |
| Thr-Leu-Asp(NHCH2Ph)-Thr-Trp-Ser-Ser-Ser(p) (TL[Asp(NHCH2Ph)]TWSS[pS]) [Compound 4] | negatively modulated (decreased) |

target: T1, PCSK9-WT protein; test: FACS analysis of cell surface LDLR in HuH7 cells with PCSK9-WT; format: cell-based; conditions: HuH7 cells, FACS, exogenous WT PCSK9 plus peptide (FIG. 1, 100 μM)
Experimental: HuH7 cells were incubated for 18 h in the absence (Cnt) or presence of 0.75 μg/ml PCSK9-WT protein alone (WT) or mixed with 100 μM of various SRX peptides. The level of LDLR at the cell surface was measured by FACS using anti human LDLR Ab and a suitable secondary Ab labeled with Alexa 647. Cell surface LDLR is reported relative to Cnt. % inhibition of activity was calculated as [SRX−WT]/[Cnt−WT]×100%.
See, FIG. 1. In that experiment, the LDLR levels of a hepatocyte culture model (HuH7 cells) were measured by fluorescence activated cell sorting (FACS) in accordance with Example III. Cell surface LDLR is reported as a percentage of Basal levels of LDLR, indicated by the Cnt_Amm.Bic, Cnt_Ac.Acid, and Cnt bars in the top graph. See, FIG. 1 (top panel). LDLR levels in the presence of exogenous PCSK9 is indicated as WT_Amm.Bic, WT-Ac.Acid, and WT, and Exogenous PCSK9 in combination with a tested peptide is indicated as SRX##. The measured LDLR levels are reported as % versus basal controls (Cnt) of the respective group. […] This was further shown a percent inhibition (% inhibition was calculated as [SRX−WT]/[Cnt−WT]×100%) where positive modulation (increase) of LDLR level is reported as positive % inhibition, and negative modulation (decrease) of LDLR level is reported as negative % inhibition. See, FIG. 1 (bottom panel).
Benjannet et al., “Effects of the prosegment and pH on the activity of PCSK9: evidence for additional processing events” J Biol Chem. 285(52): 40965-40978 (2010). The cells were then washed 3× with solution A (calcium/magnesium-free Dulbecco's PBS (Invitrogen) containing 0.5% bovine serum albumin (Sigma) and 1 g/liter glucose)). The cells were then incubated for 10 min at room temperature with 1× Versene solution (Invitrogen) followed by the addition of 5 ml of solution A. The cells were then incubated for 40 min in solution A containing a human LDLR mAb-C7 (1:100; Santa Cruz Biotechnology). Following washes, the cells were then incubated for 20 min in solution A containing a secondary antibody (Alexa Fluor 647 donkey anti-mouse antibody; 1:250; Molecular Probes).
Following suspension in PBS containing 0.2% of propidium iodide, the cells were analyzed by FACS for both propidium iodide (dead cells) and LDLR in live cells with Alexa Fluor 647 using the FACS BD LSR (BD Biosciences).

| Molecule | modulation of LDLR cell surface level |
| --- | --- |
| Thr-Leu-Gly(CH2CH2cyclohexyl)-Thr-Trp-Ser-Ser-Ser(p) (TL[hCha]TWSS[pS]) [Compound 5] | positively modulate (increase) |
| Ac-Trp-Ala-Ser(p) (Ac-Trp-Ala-[pS]) [Compound 12] | negatively modulate (decrease) |
| CC(=O)N[C@@H](Cc1ccc(O)cc1)C(=O)N[C@@H](Cc1c[nH]c2ccccc12)C(=O)NCC(=O)O [Compound 14, Ac-Tyr-Trp-Gly] (Ac-Tyr-Trp-Gly-OH) | negatively modulate (decrease) |

same assay, conditions: Huh-7; FACS, HuH7 cells, peptide at 100 uM; read-out: Cell Activity of Exemplified Peptides (inhibition)

| Molecule | inhibition at 100 µM |
| --- | --- |
| CC(=O)N[C@@H](Cc1ccc(O)cc1)C(=O)N[C@@H](Cc1c[nH]c2ccccc12)C(=O)NCC(=O)O [Compound 14, Ac-Tyr-Trp-Gly] (Ac-Tyr-Trp-Gly-OH) | < -30% |
| CC(C)C[C@H](NC(=O)[C@@H](N)[C@@H](C)O)C(=O)N[C@@H](CSCc1ccccc1)C(=O)N[C@H](C(=O)N[C@@H](Cc1c[nH]c2ccccc12)C(=O)N[C@@H](CO)C(=O)N[C@@H](CO)C(=O)N[C@@H](COP(=O)(O)O)C(=O)O)[C@@H](C)O [Compound 3, Thr-Leu-Cys(CH2-Ph)-Thr-Trp-Ser-Ser-Ser(p)] (H-TLC(Bn)TWSS[pS]-OH) | > 30% |
